From article PMC8762078 (The Journal of Biological Chemistry, 2021) come the findings set out here.

A value given as a limit tells only on which side of the number the result lay.

Broadly, the Kd is the concentration at which binding is half-saturated. As a reminder, the stoichiometry N is the number of molecules, sites or subunits per partner or assembly.

B1: p62 WT-AIM peptide (peptide)
peptide: SGGDDDWTHLSS
notes: also called p62 AIM; source: synthetic peptide; bought: Genosphere Biotechnologies and Peptide Synthetics
B2: p62 L341V-AIM peptide (peptide)
peptide: SGGDDDWTHVSS
notes: also called L341V-mutant peptide; mutant AIM; source: synthetic peptide; bought: Genosphere Biotechnologies and Peptide Synthetics
B3: LC3C (microtubule-associated protein 1A/1B light chain 3C) (natural protein, human, UniProt Q9BXW4 1-126, looked up)
chain: MPPPQKIPSVRPFKQRKSLAIRQEEVAGIRAKFPNKIPVVVERYPRETFLPPLDKTKFLVPQELTMTQFLSIIRSRMVLRATEAFYLLVNNKSLVSMSATMAEIYRDYKDEDGFVYMTYASQETFG

Common to all, as to conditions: both partners purified
In experiment [1] the target is LC3A (microtubule-associated protein 1A/1B light chain 3A) (human, UniProt Q9H492 1-121). As to the kind of experiment: ITC; MicroCal VP-ITC, 30 °C; protein 10 μM in the cell, 10 μl injections of peptide (100-150 μM); 25 mM potassium phosphate, 150 mM NaCl, pH 7.0; no reducing agent; one site binding model; two independent measurements. In general terms: ITC needs no label: the signal is the heat of the interaction.

The target in experiment [2] is LC3B (microtubule-associated protein 1A/1B light chain 3B) (human, UniProt Q9GZQ8 1-120). The experiment is described as above.
Experiment [3] has as its target B3. The experiment is described as above.
In experiment [4] the target is GABARAPL1 (human, UniProt Q9H0R8 1-117). The description is as above.
Sequence of GABARAPL1 (Q9H0R8 whole entry): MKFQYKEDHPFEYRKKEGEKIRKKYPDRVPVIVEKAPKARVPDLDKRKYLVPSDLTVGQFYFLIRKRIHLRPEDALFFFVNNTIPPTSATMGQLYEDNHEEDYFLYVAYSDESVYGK
Experiment [5] deals with T1, GABARAPL2 (human, UniProt P60520 1-117).
T1 construct: GABARAPL2, human ATG8 protein of the GABARAP subfamily; 15N-labelled (13C,15N for assignment) in M9 minimal medium for the NMR experiments; Cloned into pGEX-4T-1 between BamHI and XhoI; thrombin cleavage may leave a few vector residues at the N-terminus (surmised); also called hATG8; source: E. coli BL21 (DE3), purified (Glutathione Sepharose, thrombin cleavage, ion exchange, gel filtration); not …
T1 sequence (P60520 whole entry): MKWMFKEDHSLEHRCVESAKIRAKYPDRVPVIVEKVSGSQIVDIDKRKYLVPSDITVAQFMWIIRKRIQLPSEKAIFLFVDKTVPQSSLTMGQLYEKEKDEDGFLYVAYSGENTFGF
Described as above.

Experiment [6] deals with B1. As to the kind of experiment: native MS; ESI-MS competition binding under nondenaturing conditions: each hATG8 titrated into an equimolar mixture of WT-AIM and L341V-AIM peptides (each 10 μM); read-out is the ratio of peak intensities of unbound WT and L341V peptides; ratios given for 20 μM hATG8; two independent experiments.

Take B1: the Kd was determined as 4.55 µM in experiment [1], 3.83 µM in experiment [2], 16.8 µM in experiment [3] and 3.23 µM in experiment [4]. Moreover, the dH in experiment [1] is -17.9 kcal/mol; in experiment [2], -10.7 kcal/mol; in experiment [3] it was -3.59 kcal/mol; in experiment [4] it was -5.61 kcal/mol; in experiment [5], -2.43 kcal/mol. Moreover, the “stoichiometry N” value in experiment [1] was determined as 1.05; in experiment [3], 0.82; in experiment [4] it was 0.86; in experiment [5] it was 1.07.

B2: the dH is -6.3 kcal/mol in experiment [1], -5.38 kcal/mol in experiment [3], -5.37 kcal/mol in experiment [4] and -4 kcal/mol in experiment [5]. The Kd in experiment [2] came out at 8.47 µM; in experiment [4], 5.78 µM; in experiment [5], 6.99 µM. The “stoichiometry N” value was 0.9 in experiment [3], 0.98 in experiment [4] and 1.03 in experiment [5].

Turning to B3, the “ratio of unbound WT:L341V AIM peptides at 20 μM hATG8 (reference: L341V-AIM)” value in experiment [6] is over 0.95.
